We go through four molecules from US5928933A, “Process for the enzymatic resolution of N-(alkoxycarbonyl)-4-ketoproline alkyl esters or N-(alkoxycarbonyl)-4-hydroxyproline alkyl esters using Candida antarctica lipase B” (priority 1998, dated 1999).

Common to all, as to type: biochemical
The target in data set [1] is T1, Candida antartica lipase fraction B (CALB) (Moesziomyces antarcticus, UniProt P41365).
T1 construct: purchased Boehringer Mannheim CHIRAZYME L-2
T1 sequence (P41365 26-342): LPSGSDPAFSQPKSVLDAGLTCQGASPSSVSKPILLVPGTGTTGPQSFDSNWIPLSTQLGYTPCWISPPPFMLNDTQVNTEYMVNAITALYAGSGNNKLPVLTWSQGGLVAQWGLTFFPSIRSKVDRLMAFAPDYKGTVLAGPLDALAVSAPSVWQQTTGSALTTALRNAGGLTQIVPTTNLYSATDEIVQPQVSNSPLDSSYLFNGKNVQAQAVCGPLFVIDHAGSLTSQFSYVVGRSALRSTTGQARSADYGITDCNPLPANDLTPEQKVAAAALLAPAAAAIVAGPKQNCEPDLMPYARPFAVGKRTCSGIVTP
Description: Relative rates of hydrolysis of N-(alkoxycarbonyl)-trans-4-hydroxy-L-proline methyl esters by CALB. To be noted: for time to complete hydrolysis of the methyl ester / initial reaction rate: 50 mM substrate, 3.0 mg/mL CALB, 25° C.; for time to complete hydrolysis of the methyl ester: 0.100M potassium phosphate pH 7.0; for initial reaction rate: pH 7.0. The procedure: A 2.0 mL aqueous solution containing 50 mM N-(methoxycarbonyl)-trans-4-hydroxy-L-proline methyl ester, or 50 mM N-(ethoxycarbonyl)-trans-4-hydroxy-L-proline methyl ester, or 50 mM N-(tert-butoxycarbonyl)-trans-4-hydroxy-L-proline methyl ester in 0.100M potassium phosphate (pH 7.0) and 3.0 mg/mL of Candida antartica lipase fraction B was mixed at 25° C. The reactions were analyzed by removal of 0.200 mL aliquots at pre-determined times and mixing the sample with an equivalent volume of 0.100M propionic acid (HPLC internal standard) in water, and filtering the resulting solution through a 10K molecular weight cut-off filter to remove the enzyme. The filtrate was then analyzed by high pressure liquid chromatography on a HPX-87H column (Bio-Rad, 30 cm×7.8 mm) to determine the percent conversion of the N-(alkoxycarbonyl)-trans-4-hydroxy-L-proline methyl ester. Complete hydrolysis of the methyl ester of the N-methoxy-, N-ethoxy-, and N-tert-butoxycarbonyl derivatives occurred in 5 h, 2 h, and 6 h, respectively, and the initial reaction rates were 5.7, 18.7, and 3.3 micromoles/h/mg enzyme catalyst, respectively.

Data set [2] is described as follows: Enzyme screens for resolution of racemic N-(acetyl)-4-keto-D,L-proline methyl ester (Example 7, comparative). The following applies: 0.100M racemate, 5 h, 5.0 to 30 mg/mL enzyme, 25° C.; for conv. (percent conversion of the racemate): 0.20M sodium succinate pH 6.0; for % ee (enantiomeric excess of the D-isomer): pH 6.0. The procedure: An aqueous solution (1.0 mL) containing 0.100M racemic N-(acetyl)-4-keto-D,L-proline methyl ester in 0.20M sodium succinate (pH 6.0) was mixed with 5.0 to 30 mg/mL of commercial enzyme preparations (listed in the table below) at 25° C. […] The dichloromethane extract was then analyzed by chiral gas chromatography on a Chiraldex G-TA column (Advanced Separation Technologies, Inc., 50 m×0.32 mm ID) to determine the percent conversion of the racemate, and the enantiomeric excess of the N-(acetyl)-4-keto-D-proline methyl ester.

Data set [3] can be described thus: Enzyme screens for resolution of racemic N-(methoxycarbonyl)-4-keto-D,L-proline methyl ester (Example 1). To be noted: 0.100M racemate, 5.0 to 50 mg/mL enzyme, 25° C., optimum; for conv. (percent conversion of the racemate): 0.20M sodium succinate pH 6.0, 5 h or 0.20M sodium acetate pH 5.0, 24 h; for % ee (enantiomeric excess of the D-isomer; L-isomer with porcine liver esterase): pH 6.0, 5 h or pH 5.0, 24 h. On the procedure: An aqueous solution (1.0 mL) containing 0.100M racemic N-(methoxycarbonyl)-4-keto-D,L-proline methyl ester in either 0.20M sodium succinate (pH 6.0) or 0.20M sodium acetate (pH 5.0) was mixed with 5.0 to 50 mg/mL of commercial enzyme preparations (listed in the table below) at 25° C. […] The dichloromethane extract was then analyzed by chiral gas chromatography on a Chiraldex G-TA column (Advanced Separation Technologies, Inc., 50 m×0.32 mm ID) to determine the percent conversion of the racemate, and the enantiomeric excess of the N-(methoxycarbonyl)-4-keto-D-proline methyl ester.

Data set [4] in a line: Enzyme screens for resolution of racemic N-(methoxycarbonyl)-4,4-dimethoxy-D,L-proline methyl ester (Example 8, comparative). The following applies: 0.100M racemate, 6 h or 17 h, 5.0 to 30 mg/mL enzyme, 25° C.; for conv. (percent conversion of the racemate): 0.25M potassium phosphate pH 7.0; for % ee (enantiomeric excess of the D-isomer): pH 7.0. On the procedure:
An aqueous solution (1.0 mL) containing 0.100M racemic N-(methoxycarbonyl)-4,4-dimethoxy-D,L-proline methyl ester in 0.25M potassium phosphate (pH 7.0) was mixed with 5.0 to 30 mg/mL of commercial enzyme preparations (listed in the table below) at 25° C. […] The ethyl acetate extract was then analyzed by chiral gas chromatography on a Chiraldex G-TA column (Advanced Separation Technologies, Inc., 50 m×0.32 mm ID) to determine the percent conversion of the racemate, and the enantiomeric excess of N-(methoxycarbonyl)-4,4-dimethoxy-D-prolinemethyl ester.

Data set [5] is described as follows: Enzyme screens for resolution of diastereomeric mixture CHLP(MEMC)/THLP(MEMC) (Example 13). To be noted: 0.050M each isomer, 5 h, 5.0 to 50 mg/mL enzyme, 25° C.; for conv. (percent conversion of the diastereomeric mixture): 0.100M potassium phosphate pH 7.0; for % de (diastereomeric excess of the cis-L-isomer): pH 7.0. On the procedure: (§1) An aqueous solution containing 0.050M N-(methoxycarbonyl)-trans-4-hydroxy-L-proline methyl ester and 0.050M N-(methoxycarbonyl)-cis-4-hydroxy-L-proline methyl ester in 0.100M potassium phosphate (pH 7.0) was mixed with 5.0 to 50 mg/mL of commercial enzyme preparations (listed in the table below) at 25° C. The reactions were analyzed after 5 h by removal of a 0.200 mL sample and mixing with an equivalent volume of 0.100M propionic acid (HPLC internal standard) in water. The resulting solution was filtered through a 10K molecular weight cut-off filter to remove the enzyme and the filtrate analyzed by high pressure liquid chromatography on a HPX-87H column (Bio-Rad, 30 cm×7.8 mm) to determine the percent conversion of the diastereomeric mixture, and the diastereomeric excess of the N-(methoxycarbonyl)-cis-4-hydroxy-L-proline methyl ester.

The nature of data set [6]: Enzyme screens for resolution of diastereomeric mixture CHDP(MEMC)/THLP(MEMC) (Example 9). The following applies: 0.050M each isomer, 5 h or 24 h, 5.0 to 50 mg/mL enzyme, 25° C.; for conv. (percent conversion of the diastereomeric mixture): 0.100M potassium phosphate pH 7.0; for % de (diastereomeric excess of the D-isomer, CHDP(MEMC)): pH 7.0. The procedure: as §1, with “aqueous solution (1.0 mL) containing 0.050M” for “aqueous solution containing 0.050M”, “and 0.050M N-(methoxycarbonyl)-cis-4-hydroxy-D-proline methyl ester” for “and 0.050M N-(methoxycarbonyl)-cis-4-hydroxy-L-proline methyl ester”, “after 5 h or 24 h by” for “after 5 h by”, “conversion of each isomer of the diastereomeric” for “conversion of the diastereomeric”, “of the N-(methoxycarbonyl)-cis-4-hydroxy-D-proline methyl ester.” for “of the N-(methoxycarbonyl)-cis-4-hydroxy-L-proline methyl ester.”

With `COC(=O)[C@@H]1C[C@@H](O)CN1C(=O)OC(C)(C)C` [THLP(MEBOC), N-(tert-butoxycarbonyl)-trans-4-hydroxy-L-proline methyl ester], in data set [1], the “time to complete hydrolysis of the methyl ester” value stood at 6 h and the initial reaction rate is reported as 3.3 micromoles/h/mg enzyme catalyst.

Consider `CCOC(=O)N1C[C@H](O)C[C@H]1C(=O)OC` [THLP(MEEC), N-(ethoxycarbonyl)-trans-4-hydroxy-L-proline methyl ester], for which, in data set [1], the “time to complete hydrolysis of the methyl ester” value was found to be 2 h and the initial reaction rate is 18.7 micromoles/h/mg enzyme catalyst. In addition, in data set [1] (CALB), the “initial rate of methyl ester hydrolysis, times faster than THLP(MEBOC)” value is given as around 1.7 times and the “initial rate of methyl ester hydrolysis, times faster than THLP(MEEC) as printed” value is on record as “approximately 3.3 times”.

B1: lipase (Chirazyme L7): commercial enzyme preparation, source porcine pancreas (protein, UniProt P00591 1-450, looked up)
Pancreatic triacylglycerol …: SEVCFPRLGCFSDDAPWAGIVQRPLKILPWSPKDVDTRFLLYTNQNQNNYQELVADPSTITNSNFRMDRKTRFIIHGFIDKGEEDWLSNICKNLFKVESVNCICVDWKGGSRTGYTQASQNIRIVGAEVAYFVEVLKSSLGYSPSNVHVIGHSLGSHAAGEAGRRTNGTIERITGLDPAEPCFQGTPELVRLDPSDAKFVDVIHTDAAPIIPNLGFGMSQTVGHLDFFPNGGKQMPGCQKNILSQIVDIDGIWEGTRDFVACNHLRSYKYYADSILNPDGFAGFPCDSYNVFTANKCFPCPSEGCPQMGHYADRFPGKTNGVSQVFYLNTGDASNFARWRYKVSVTLSGKKVTGHILVSLFGNEGNSRQYEIYKGTLQPDNTHSDEFDSDVEVGDLQKVKFIWYNNNVINPTLPRVGASKITVERNDGKVYDFCSQETVREEVLLTLNPC
Regarding B1, in data set [2], the “conv. (percent conversion of the racemate)” value worked out at 0% and the “% ee (enantiomeric excess of the D-isomer)” value turned out to be 0%. Moreover, in data set [3], the “conv. (percent conversion of the racemate)” value is on record as 0% and the “% ee (enantiomeric excess of the D-isomer; L-isomer with porcine liver esterase)” value is recorded as 0%. Also, in data set [4], the “conv. (percent conversion of the racemate)” value is reported as 10% and the “% ee (enantiomeric excess of the D-isomer)” value is reported as 0%. In addition, in data set [5], the “conv. (percent conversion of the diastereomeric mixture)” value was determined as 0% and the “% de (diastereomeric excess of the cis-L-isomer)” value worked out at 0%. In addition, in data set [6], the “conv. (percent conversion of the diastereomeric mixture)” value was determined as 0% and the “% de (diastereomeric excess of the D-isomer, CHDP(MEMC))” value turned out to be 0%.

B2: protease, trypsin bovine pancreas: commercial trypsin, source bovine pancreas (protein, UniProt P00760 24-246, looked up)
Serine protease 1: IVGGYTCGANTVPYQVSLNSGYHFCGGSLINSQWVVSAAHCYKSGIQVRLGEDNINVVEGNEQFISASKSIVHPSYNSNTLNNDIMLIKLKSAASLNSRVASISLPTSCASAGTQCLISGWGNTKSSGTSYPDVLKCLKAPILSDSSCKSAYPGQITSNMFCAGYLEGGKDSCQGDSGGPVVCSGKLQGIVSWGSGCAQKNKPGVYTKVCNYVSWIKQTIASN
As to B2, in data set [2], the “conv. (percent conversion of the racemate)” value was 0% and the “% ee (enantiomeric excess of the D-isomer)” value is 0%. Also, in data set [3], the “conv. (percent conversion of the racemate)” value is on record as 0% and the “% ee (enantiomeric excess of the D-isomer; L-isomer with porcine liver esterase)” value is on record as 0%. Further, in data set [4], the “conv. (percent conversion of the racemate)” value is on record as 0% and the “% ee (enantiomeric excess of the D-isomer)” value was 0%. Besides, in data set [5], the “conv. (percent conversion of the diastereomeric mixture)” value is 0% and the “% de (diastereomeric excess of the cis-L-isomer)” value is listed as 0%. Further, in data set [6], the “conv. (percent conversion of the diastereomeric mixture)” value came out at 0% and the “% de (diastereomeric excess of the D-isomer, CHDP(MEMC))” value was found to be 0%.
